Assays:
[1] = biological target: CHR-derived peptide C34 of HIV-1 92RW020 gp41 (HIV-1 92RW020); assay: ITC
[2] = biological target: CHR-derived peptide C34 of HIV-1 92RW020 gp41 with the N126K mutation (HIV-1 92RW020); assay: ITC
[3] = biological target: CHR-derived peptide C34 of HIV-1 92RW020 gp41 with the N126K mutation (HIV-1 92RW020); assay: circular dichroism spectroscopy
[4] = biological target: CHR-derived peptide C34 of HIV-1 JRFL gp41 (HIV-1 JRFL); assay: ITC
[5] = biological target: CHR-derived peptide C34 of HIV-1 JRFL gp41 with the N126K mutation (HIV-1 JRFL); assay: ITC
[6] = biological target: CHR-derived peptide C34 of HIV-1 JRFL gp41 with the N126K mutation (HIV-1 JRFL); assay: circular dichroism spectroscopy
[7] = biological target: CHR-derived peptide C34 of HIV-1 NL4-3 gp41 with the N126K mutation (HIV-1 NL4-3); assay: ITC
[8] = biological target: CHR-derived peptide C34 of HIV-1 NL4-3 gp41 with the N126K mutation (HIV-1 NL4-3); assay: circular dichroism spectroscopy

NHR-derived peptide N36 of HIV-1 92RW020 gp41
Ka [1]: 940000 M⁻¹
dH [1]: -49 kcal/mol
stoichiometry N [1]: 1.4 Site
Ka [2]: 1.3e+06 M⁻¹
dH [2]: -55 kcal/mol
stoichiometry N [2]: 1 Site
Tm of the complex [3]: 62.7 °C

NHR-derived peptide N36 of HIV-1 JRFL gp41
Ka [4]: 430000 M⁻¹
dH [4]: -44 kcal/mol
stoichiometry N [4]: 1.3 Site
Ka [5]: 1.2e+06 M⁻¹
dH [5]: -35 kcal/mol
stoichiometry N [5]: 1.4 Site
Tm of the complex [6]: 62.7 °C

NHR-derived peptide N36 of HIV-1 NL4-3 gp41 (from UniProt P04578 546-581)
Ka [7]: 1.9e+06 M⁻¹
dH [7]: -38 kcal/mol
stoichiometry N [7]: 1.2 Site
Tm of the complex [8]: 68.5 °C

From PMC7150849
